Experimental data taken from the supplement of paper PMC9732359.
± gives the uncertainty stated by the source.

Test: protein stability index of a GFP-peptide fusion (yeast GPS) (PSI 1-4); higher = more stable; sorted into four equal gates, so the index is relative within each strain
Method in brief: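 For each peptide, the protein stability index sums the read frequency in every gate after multiplying it by the gate number. Read frequencies came from plasmids that were PCR-amplified from each gate and Illumina-sequenced, with reads assigned to strains by barcodes. The gates were four equal bins of GFP/Cherry fluorescence ratio applied to mid-log yeast in leucine-free medium carrying a pooled library of tiled 17-residue yeast protein peptides fused downstream of GFP on a Cherry-expressing plasmid.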

Row | Sequence | protein stability index (doa10∆) | protein stability index (pdr5∆) | protein stability index (san1∆) | protein stability index (ubr1∆)
1 | SHHLKADTIDHDELIDS [YGL172W/NUP49] | 3.03 ± 0.063 | 3.25 ± 0.046 | 3.08 ± 0.042 | 3.08 ± 0.038
2 | SHTGLVRKYDLNICRQC [RPS29B] | 2.18 ± 0.052 | 2.51 ± 0.068 | 1.94 ± 0.092 | 2.09 ± 0.088
3 | SHTQNIGHLIKTRFKGS [SMC2] | 2.94 ± 0.11 | 1.98 ± 0.086 | 1.96 ± 0.13 | 2.27 ± 0.066
4 | SHVENLEEKLYQMQSNY [YIL149C/MLP2] | 2.45 ± 0.051 | 2.84 ± 0.05 | 2.54 ± 0.05 | 2.86 ± 0.044
5 | SHVNKYGLIRGLKFASF [PRP8] | 1.83 ± 0.067 | 1.85 ± 0.065 | 1.91 ± 0.089 | 1.34 ± 0.03
6 | SIGKNPFNKPNIETGEN [SWI3] | 3.04 ± 0.055 | 3.03 ± 0.048 | 2.87 ± 0.037 | 2.97 ± 0.044
7 | SIGYETELKKITDKTIK [IRR1] | 3.06 ± 0.07 | 3.12 ± 0.066 | 2.99 ± 0.062 | 3 ± 0.082
8 | SIIQSKQDCVDWFTYSY [BRR2] | 1.58 ± 0.037 | 1.78 ± 0.037 | 1.69 ± 0.085 | 1.97 ± 0.033
9 | SILRKSSPEEPFMSYSP [SNF12] | 2.64 ± 0.074 | 2.74 ± 0.075 | 2.55 ± 0.088 | 2.79 ± 0.059
10 | SILVIVQKILPLSNEVF [SWI1] | 1.37 ± 0.045 | 1.34 ± 0.039 | 1.3 ± 0.073 | 1.56 ± 0.037
11 | SIPPATIETFNEAALVV [RPB5] | 3.09 ± 0.18 | 2.46 ± 0.15 | 2.02 ± 0.11 | 3.15 ± 0.13
12 | SIQDTSTVAKNVSFVLP [YCG1] | 3.21 ± 0.11 | 2.92 ± 0.074 | 3.29 ± 0.08 | 3.04 ± 0.054
13 | SIQEQIQEFQGNPYIEL [SNF5] | 3.16 ± 0.071 | 3.3 ± 0.08 | 3.49 ± 0.082 | 3.31 ± 0.059
14 | SIRSRRPYQVNVLIGGY [PRE1] | 2.34 ± 0.17 | 2.88 ± 0.09 | 1.71 ± 0.19 | 3.04 ± 0.1
15 | SIVGVDLSSAASASGAA [FAS2] | 1.77 ± 0.13 | 1.53 ± 0.11 | – | 1.62 ± 0.18
16 | SIYDKWTDPNLKSSLAD [RPN1] | 2.99 ± 0.1 | 2.96 ± 0.067 | 2.88 ± 0.062 | 3.19 ± 0.054
17 | SKAFKESSDFGAIILTK [SRP54] | 2.12 ± 0.073 | 1.57 ± 0.056 | 1.56 ± 0.17 | 1.67 ± 0.06
18 | SKAPAEKKPAAKKTSTS [HTB1] | 3.17 ± 0.13 | 3.01 ± 0.069 | 2.83 ± 0.08 | 3.33 ± 0.11
19 | SKDVSRLLSALGPRGVS [SRP21] | 3.09 ± 0.14 | 2.54 ± 0.28 | – | 2.83 ± 0.084
20 | SKEKANFLETIASTEKP [SIR4] | 2.26 ± 0.069 | 2.28 ± 0.055 | 2.04 ± 0.1 | 2.64 ± 0.058
21 | SKEQIHGSIIILGMLSL [YCS4] | 2.45 ± 0.053 | 2.32 ± 0.05 | 2.72 ± 0.049 | 2.82 ± 0.045
22 | SKIIVFPRNGKAPEAEQ [RPL13A] | 3.19 ± 0.12 | 3.09 ± 0.12 | 3.06 ± 0.062 | 2.98 ± 0.15
23 | SKILSQAPSELELQVAK [RPS7B] | 2.96 ± 0.057 | 3.07 ± 0.047 | 2.95 ± 0.063 | 3 ± 0.051
24 | SKINELSYYVEETNVDI [SMC4] | 3.28 ± 0.17 | 2.98 ± 0.15 | – | 2.99 ± 0.15
25 | SKKGKPTVNKKPKNKKK [SRP72] | 2.73 ± 0.15 | 2.68 ± 0.11 | 2.45 ± 0.12 | 2.9 ± 0.098
26 | SKLNELKKELKLLAKEL [SMC2] | 2.92 ± 0.11 | 2.9 ± 0.12 | – | 3.09 ± 0.15

Row | Sequence | protein stability index (doa10∆) | protein stability index (pdr5∆) | protein stability index (san1∆) | protein stability index (ubr1∆)
27 | SKNAERKWAARAASAKI [RPS8A] | 3.135 ± 0.03 | 3.212 ± 0.028 | 3.173 ± 0.022 | 3.219 ± 0.026
28 | SKNTAVSKVQKRKVLEL [SRP72] | 2.66 ± 0.11 | 2.1 ± 0.16 | – | –
29 | SKQPNSAIRKCVRVQLI [RPS23A] | 2.69 ± 0.078 | 2.77 ± 0.064 | 1.79 ± 0.096 | 2.96 ± 0.045
30 | SKRLPLRFPEHTSSGSV [BRR2] | 2.9 ± 0.096 | 2.97 ± 0.083 | 2.74 ± 0.14 | 2.34 ± 0.065
31 | SKRPQLGEIPNPMKKHK [SIR4] | 2.44 ± 0.075 | 2.53 ± 0.059 | 2.23 ± 0.089 | 2.69 ± 0.079
32 | SKSAFSFGTANTNGTNA [YOR098C/NUP1] | 3 ± 0.088 | 3.08 ± 0.088 | 2.77 ± 0.14 | 2.86 ± 0.067
33 | SKVIIKFLQVMQKHGYI [RPS22A] | 1.95 ± 0.038 | 1.84 ± 0.038 | 1.76 ± 0.066 | 2 ± 0.039
34 | SKVSKQQAKGAFQKVAA [RPL24B] | 2.45 ± 0.042 | 2.97 ± 0.043 | 2.78 ± 0.036 | 2.65 ± 0.036
35 | SLDAREANFDLINIDTS [RPC40] | 3.5 ± 0.078 | 3.22 ± 0.066 | 3.18 ± 0.058 | 3.04 ± 0.071
36 | SLDLIKERRSLKPEVRK [RPL24A] | – | – | – | 3.32 ± 0.22
37 | SLDNKTLDDLVTKWTNQ [YJL041W/NSP1] | 3.08 ± 0.056 | 3.07 ± 0.069 | 3.05 ± 0.062 | 3.17 ± 0.043
38 | SLEALIDLCHDFPHLTP [YCS4] | 2.31 ± 0.042 | 2.35 ± 0.036 | 2.56 ± 0.049 | 2.25 ± 0.031
39 | SLEDPQVRKKQIETINF [YDL116W/NUP84] | 1.72 ± 0.12 | 1.82 ± 0.088 | 2.19 ± 0.11 | 2.23 ± 0.19
40 | SLEEIIAEGQKKFATVP [RPP2B] | 2.77 ± 0.061 | 2.89 ± 0.058 | 2.93 ± 0.061 | 2.59 ± 0.04
41 | SLGSSSTTASGTTATGT [YGR119C/NUP57] | 3.08 ± 0.072 | 3.31 ± 0.076 | 3.08 ± 0.067 | 3.18 ± 0.067
42 | SLHPLFEQFEKFYEEKL [RPN9] | 2.67 ± 0.24 | 2.9 ± 0.16 | – | –
43 | SLIRNNLHAEGWPKLQL [ECM29] | 1.15 ± 0.056 | 1.25 ± 0.081 | 1.32 ± 0.17 | 1.04 ± 0.085
44 | SLKALASKYNCDKSVCR [RPL40A] | 3.08 ± 0.069 | 2.97 ± 0.089 | 3.12 ± 0.054 | 2.94 ± 0.087
45 | SLLESGSEILGDLKLQV [RPO21] | 3.59 ± 0.27 | 3.58 ± 0.14 | 2.53 ± 0.21 | 3.02 ± 0.18
46 | SLLLKNYLNDMHDSNLQ [SKP1] | 2.31 ± 0.093 | 2.48 ± 0.05 | 1.81 ± 0.093 | 2.08 ± 0.05
47 | SLMDTLITPAVRNTAPN [YCG1] | 1.6 ± 0.061 | 1.73 ± 0.082 | 1.26 ± 0.19 | 1.92 ± 0.058
48 | SLMSSQNKLFYITNADD [SIR3] | 2.77 ± 0.15 | 2.02 ± 0.12 | 3.07 ± 0.16 | 1.49 ± 0.095
49 | SLNLQYVNYEISTAKAW [YML103C/NUP188] | 2.6 ± 0.055 | 2.93 ± 0.082 | 2.55 ± 0.074 | 2.69 ± 0.058
50 | SLNLTDDVISNAGTNDN [MCD1] | 2.88 ± 0.047 | 2.97 ± 0.057 | 3.11 ± 0.036 | 2.96 ± 0.041
51 | SLNSMTNAKLPNVDLVT [RGR1] | 2.53 ± 0.087 | 2.74 ± 0.064 | 2.52 ± 0.061 | 2.46 ± 0.041
